Experimental data: paper PMC6820532

Molecular target: I-Aα^d chain fused to the human IgG1 Fc knob (non-zippered KIH-based BDC2.5mi/IA^g7, α chain) (mouse | human)
Test: SDS stability on SDS-PAGE; 12% SDS-PAGE of the purified, co-expressed heterodimers; 0.83% SDS, left unboiled ('native') or boiled (100 °C for 5 min); fully denaturing with 20 mM β2-ME

BDC2.5mi peptide tethered to the I-Aβ^g7 chain fused to the human IgG1 Fc hole (non-zippered KIH-based BDC2.5mi/IA^g7, β chain) (Fc fusion)
stoichiometry N: 1
